# Test results taken from patent publication US20060104978.
# T1: endogenous latent PDGF-CC secreted by primary mouse fibroblasts, Q8CI19
# T1 chain: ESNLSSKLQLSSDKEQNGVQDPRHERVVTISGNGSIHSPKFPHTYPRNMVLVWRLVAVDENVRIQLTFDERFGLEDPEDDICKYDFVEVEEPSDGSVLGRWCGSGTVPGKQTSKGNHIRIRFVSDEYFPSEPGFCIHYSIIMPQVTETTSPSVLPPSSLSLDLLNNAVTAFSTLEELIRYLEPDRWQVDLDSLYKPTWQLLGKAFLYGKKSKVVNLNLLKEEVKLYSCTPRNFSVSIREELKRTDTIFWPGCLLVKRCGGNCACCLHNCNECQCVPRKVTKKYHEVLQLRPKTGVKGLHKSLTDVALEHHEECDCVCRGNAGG
# T2: chimeric PDCUBPC (CUB region of PDGF-D, hinge/core region of PDGF-C), Q9GZP0
# T2 chain: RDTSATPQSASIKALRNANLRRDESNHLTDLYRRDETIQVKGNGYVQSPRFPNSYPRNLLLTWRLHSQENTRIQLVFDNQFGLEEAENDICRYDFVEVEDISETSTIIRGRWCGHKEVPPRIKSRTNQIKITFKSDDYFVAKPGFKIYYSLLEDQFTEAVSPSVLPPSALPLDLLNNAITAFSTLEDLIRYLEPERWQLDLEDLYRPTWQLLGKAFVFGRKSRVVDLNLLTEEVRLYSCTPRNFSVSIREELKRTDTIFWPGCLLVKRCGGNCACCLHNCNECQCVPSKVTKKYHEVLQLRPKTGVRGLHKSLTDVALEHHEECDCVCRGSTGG
# T3: CUBc-myc (CUB domain of PDGF-C, residues 1 to 165, with a human c-myc tag), Q9NRA1
# T3 chain: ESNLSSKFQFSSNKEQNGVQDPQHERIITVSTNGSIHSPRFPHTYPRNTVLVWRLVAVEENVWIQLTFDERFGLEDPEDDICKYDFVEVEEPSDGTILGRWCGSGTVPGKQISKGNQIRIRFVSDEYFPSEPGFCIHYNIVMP
# B1: endogenous tPA of primary mouse fibroblasts (protein)
# chain: SYRATCRDEPTQTTYQQHQSWLRPMLRSSRVEYCRCNSGLVQCHSVPVRSCSEPRCFNGGTCQQALYFSDFVCQCPDGFVGKRCDIDTRATCFEEQGITYRGTWSTAESGAECINWNSSVLSLKPYNARRPNAIKLGLGNHNYCRNPDRDLKPWCYVFKAGKYTTEFCSTPACPKGKSEDCYVGKGVTYRGTHSLTTSQASCLPWNSIVLMGKSYTAWRTNSQALGLGRHNYCRNPDGDARPWCHVMKDRKLTWEYCDMSPCSTCGLRQYKRPQFRIKGGLYTDITSHPWQAAIFVKNKRSPGERFLCGGVLISSCWVLSAAHCFLERFPPNHLKVVLGRTYRVVPGEEEQTFEIEKYIVHEEFDDDTYDNDIALLQLRSQSKQCAQESSSVGTACLPDPNLQLPDWTECELSGYGKHEASSPFFSDRLKEAHVRLYPSSRCTSQHLFNKTVTNNMLCAGDTRSGGNQDLHDACQGDSGGPLVCMINKQMTLTGIISWGLGCGQKDVPGVYTKVTNYLDWIHDNMKQ
# B2: full-length human tPA expressed in transfected COS-1 cells (pSG5) (protein)
# chain: SYQVICRDEKTQMIYQQHQSWLRPVLRSNRVEYCWCNSGRAQCHSVPVKSCSEPRCFNGGTCQQALYFSDFVCQCPEGFAGKCCEIDTRATCYEDQGISYRGTWSTAESGAECTNWNSSALAQKPYSGRRPDAIRLGLGNHNYCRNPDRDSKPWCYVFKAGKYSSEFCSTPACSEGNSDCYFGNGSAYRGTHSLTESGASCLPWNSMILIGKVYTAQNPSAQALGLGKHNYCRNPDGDAKPWCHVLKNRRLTWEYCDVPSCSTCGLRQYSQPQFRIKGGLFADIASHPWQAAIFAKHRRSPGERFLCGGILISSCWILSAAHCFQERFPPHHLTVILGRTYRVVPGEEEQKFEVEKYIVHKEFDDDTYDNDIALLQLKSDSSRCAQESSVVRTVCLPPADLQLPDWTECELSGYGKHEALSPFYSERLKEAHVRLYPSSRCTSQHLLNRTVTDNMLCAGDTRSGGPQANLHDACQGDSGGPLVCLNDGRMTLVGIISWGLGCGQKDVPGVYTKVTNYLDWIRDNMRP
# B3: tPA purified from human melanoma cells (T7776, Sigma) (protein)
# chain: B2 chain
# B4: human neurotrypsin (NT) expressed in transfected COS-1 cells (pSG5) (protein)
# chain: FDSVLNDSLHHSHRHSPPAGPHYPYYLPTQQRPPRTRPPPPLPRFPRPPRALPAQRPHALQAGHTPRPHPWGCPAGEPWVSVTDFGAPCLRWAEVPPFLERSPPASWAQLRGQRHNFCRSPDGAGRPWCFYGDARGKVDWGYCDCRHGSVRLRGGKNEFEGTVEVYASGVWGTVCSSHWDDSDASVICHQLQLGGKGIAKQTPFSGLGLIPIYWSNVRCRGDEENILLCEKDIWQGGVCPQKMAAAVTCSFSHGPTFPIIRLAGGSSVHEGRVELYHAGQWGTVCDDQWDDADAEVICRQLGLSGIAKAWHQAYFGEGSGPVMLDEVRCTGNELSIEQCPKSSWGEHNCGHKEDAGVSCTPLTDGVIRLAGGKGSHEGRLEVYYRGQWGTVCDDGWTELNTYVVCRQLGFKYGKQASANHFEESTGPIWLDDVSCSGKETRFLQCSRRQWGRHDCSHREDVSIACYPGGEGHRLSLGFPVRLMDGENKKEGRVEVFINGQWGTICDDGWTDKDAAVICRQLGYKGPARARTMAYFGEGKGPIHVDNVKCTGNERSLADCIKQDIGRHNCRHSEDAGVICDYFGKKASGNSNKESLSSVCGLRLLHRRQKRIIGGKNSLRGGWPWQVSLRLKSSHGDGRLLCGATLLSSCWVLTAAHCFKRYGNSTRSYAVRVGDYHTLVPEEFEEEIGVQQIVIHREYRPDRSDYDIALVRLQGPEEQCARFSSHVLPACLPLWRERPQKTASNCYITGWGDTGRAYSRTLQQAAIPLLPKRFCEERYKGRFTGRMLCAGNLHEHKRVDSCQGDSGGPLMCERPGESWVVYGVTSWGYGCGVKDSPGVYTKVSAFVPWIKSVTKL
# How the values were obtained:
# [1] = biological target: T1, endogenous latent PDGF-CC secreted by …
# [2] = biological target: full-length PDGF-C expressed in transfected COS-1 cells (latent PDGF-CC), Q9NRA1
# [3] = biological target: full-length PDGF-D expressed in transfected COS-1 cells (latent PDGF-DD), Q9GZP0
# [4] = biological target: PDGF-CC deletion mutant ΔN170, Q9NRA1
# [5] = biological target: PDGF-CC deletion mutant ΔN150, Q9NRA1
# [6] = biological target: PDGF-CC deletion mutant ΔN210, Q9NRA1
# [7] = biological target: T2, chimeric PDCUBPC (CUB region of PDGF-D, …)
# [8] = biological target: cleavage site mutant of mouse PDGF-C (-K-K-S-K- replaced by four alanines), Q8CI19
# [9] = biological target: T3, CUBc-myc (CUB domain of PDGF-C, …)
# [10] = biological target: PDGF-CC deletion mutant ΔN230, Q9NRA1
# [11] = biological target: PDGF-CC deletion mutant ΔN190, Q9NRA1
# [12] = biological target: recombinant His6-tagged latent (full-length) human PDGF-CC, Q9NRA1
# [13] = biological target: recombinant His6-tagged latent (full-length) PDGF-DD, Q9GZP0
protein,measurement,setting,value
B1,processing of latent PDGF-CC in medium of tPA-deficient against wild-type fibroblasts (immunoblot),[1],the generation of double species migrating as 22-25 kDa was reduced to less than 10%
B2,"proteolytic cleavage in the cotransfection assay (SDS-PAGE, immunoblot)",[2],"tPA released the growth factor domain of latent PDGFCC, and the fragment migrated as a 22 kDa species under reducing conditions"
same,"proteolytic cleavage in the cotransfection assay (SDS-PAGE, immunoblot)",[3],neither of the two enzymes was able to cleave and activate latent PDGF-DD
same,proteolytic cleavage in the cotransfection assay (immunoblot),[4],"neither chimeric PDCUBPC, nor the truncation mutants lacking the CUB domain, were efficiently cleaved"
same,proteolytic cleavage in the cotransfection assay (immunoblot),[5],"neither chimeric PDCUBPC, nor the truncation mutants lacking the CUB domain, were efficiently cleaved"
same,proteolytic cleavage in the cotransfection assay (immunoblot),[6],"neither chimeric PDCUBPC, nor the truncation mutants lacking the CUB domain, were efficiently cleaved"
same,proteolytic cleavage in the cotransfection assay (immunoblot),[7],"neither chimeric PDCUBPC, nor the truncation mutants lacking the CUB domain, were efficiently cleaved"
same,proteolytic cleavage in the cotransfection assay (immunoblot),[8],the mutant was resistant to tPA-mediated cleavage
same,cleavage of full-length PDGF-CC by tPA in the cotransfection assay (immunoblot),[9],the CUB domain efficiently competed for the interaction and processing of latent PDGF-CC by tPA
same,proteolytic cleavage in the cotransfection assay (immunoblot),[10],"neither chimeric PDCUBPC, nor the truncation mutants lacking the CUB domain, were efficiently cleaved"
same,proteolytic cleavage in the cotransfection assay (immunoblot),[11],"neither chimeric PDCUBPC, nor the truncation mutants lacking the CUB domain, were efficiently cleaved"
B3,"in vitro cleavage with purified tPA (SDS-PAGE, immunoblot)",[12],"PDGF-CC, but not PDGF-DD, is a substrate for tPA"
same,"in vitro cleavage with purified tPA (SDS-PAGE, immunoblot)",[13],"PDGF-CC, but not PDGF-DD, is a substrate for tPA"
B4,"proteolytic cleavage in the cotransfection assay (SDS-PAGE, immunoblot)",[2],neurotrypsin (NT) lacked proteolytic activity toward latent PDGF-CC
same,"proteolytic cleavage in the cotransfection assay (SDS-PAGE, immunoblot)",[3],neither of the two enzymes was able to cleave and activate latent PDGF-DD
